Reference: US20090142806A1 (Pfizer, published 2009)

Legend:
human IL-17R-Ig = molecular target: T1, human IL-17R-Ig (human); assay: ELISA, IL-17R-Ig coated at 1.5 µg/ml, serial dilutions of biotin-conjugated IL-17F
T1 construct: also called IL-17R-IgG; IL-17R-Ig fusion protein
Method: (§1) After washing, saturating concentrations of avidin-horseradish peroxidase (HRP) were added, and plates were incubated for an additional 1 h at RT. Unbound avidin-HRP was washed using PBS/1% BSA, and the ELISA was developed using TBM.

human IL-17RC-Ig = molecular target: T2, human IL-17RC-Ig (human); assay: ELISA, IL-17RC-Ig coated at 1.5 µg/ml, serial dilutions of biotin-conjugated IL-17F
T2 construct: also called IL-17RC-IgG; IL-17RC-Ig fusion protein
T2 sequence (chain, as listed by the source limits assumed): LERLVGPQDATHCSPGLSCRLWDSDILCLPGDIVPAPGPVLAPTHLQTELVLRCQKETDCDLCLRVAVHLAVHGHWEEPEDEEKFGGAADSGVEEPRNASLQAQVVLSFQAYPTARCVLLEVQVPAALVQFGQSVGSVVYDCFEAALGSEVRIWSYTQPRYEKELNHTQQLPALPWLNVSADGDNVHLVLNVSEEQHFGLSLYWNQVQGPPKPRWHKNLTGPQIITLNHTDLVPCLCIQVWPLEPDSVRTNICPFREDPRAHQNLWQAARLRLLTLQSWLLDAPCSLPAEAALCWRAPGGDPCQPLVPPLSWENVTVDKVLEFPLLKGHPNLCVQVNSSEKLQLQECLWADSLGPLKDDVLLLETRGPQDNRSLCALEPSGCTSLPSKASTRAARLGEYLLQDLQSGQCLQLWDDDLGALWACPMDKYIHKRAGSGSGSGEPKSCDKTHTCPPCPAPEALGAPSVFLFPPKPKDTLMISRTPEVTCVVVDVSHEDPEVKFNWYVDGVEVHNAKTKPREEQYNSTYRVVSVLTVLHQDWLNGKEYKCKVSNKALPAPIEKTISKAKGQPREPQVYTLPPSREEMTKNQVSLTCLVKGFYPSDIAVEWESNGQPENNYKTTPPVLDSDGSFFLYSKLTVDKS
Method: as §1

T1 sequence (chain, as listed by the source limits assumed): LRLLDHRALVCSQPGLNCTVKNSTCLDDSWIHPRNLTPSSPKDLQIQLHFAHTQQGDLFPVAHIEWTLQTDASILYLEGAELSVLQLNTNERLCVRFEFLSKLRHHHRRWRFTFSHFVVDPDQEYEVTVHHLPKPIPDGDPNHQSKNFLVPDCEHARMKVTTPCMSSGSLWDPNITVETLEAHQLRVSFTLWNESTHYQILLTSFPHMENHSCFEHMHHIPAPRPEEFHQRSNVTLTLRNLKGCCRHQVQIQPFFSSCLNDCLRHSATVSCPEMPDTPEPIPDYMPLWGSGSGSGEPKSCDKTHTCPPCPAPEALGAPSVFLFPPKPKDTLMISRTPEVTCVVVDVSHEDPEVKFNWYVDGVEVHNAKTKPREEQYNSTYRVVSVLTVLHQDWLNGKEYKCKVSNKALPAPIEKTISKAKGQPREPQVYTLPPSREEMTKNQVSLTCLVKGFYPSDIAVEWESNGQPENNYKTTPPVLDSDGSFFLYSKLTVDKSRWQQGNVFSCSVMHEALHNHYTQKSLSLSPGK

- EC50 (human IL-17R-Ig): 1.23 µg/mL
- EC50 (human IL-17RC-Ig): 15 µg/mL
B1: human IL-17F (IL-17F homodimer) (ligand)
chain: RKIPKVGHTFFQKPESCPPVPGGSMKLDIGIINENQRVSMSRNIESRSTSPWNYTVTWDPNRYPSEVVQAQCRNLGCINAQGKEDISMNSVPIQQETLVVRRKHQGCSVSFQLEKVLVTVGCTCVTPVIHHVQ
modifications: biotin-conjugated in the receptor-binding and inhibition ELISAs (sites not given)
notes: Used as purified protein, as recombinant conditioned media (293, COS) and as natural protein from T cell conditioned media; also called IL-17F/F; interleukin-17F
